From CN117088968A (DONGGUAN PENGZHI BIOTECHNOLOGY CO LTD, dated 2023) come the findings set out here.

The target of experiment [1] is T1, 2019-nCoV N蛋白抗原 (2019-nCoV (新型冠状病毒), UniProt P0DTC9 1-419).
Experiment [2] addresses T1, 2019-nCoV N蛋白抗原. Put plainly: AMC sensor, antibody captured at 10 μg/mL, N protein antigen in serial dilution in PBST.

Broadly, the Kd is the free concentration of one partner at which half of the binding sites on the other are occupied at equilibrium, for simple one-to-one binding. A word on the koff: it is a measure of how fast the partners let go of each other. Lower therefore signals slow dissociation. As a reminder, the kon is the second-order rate constant of association. High values mean faster complex formation, low ones slower complex formation.

B1: 抗新型冠状病毒的IgG抗体9B54 (antibody)
heavy: EVLLQQSGPELVNPGASVKIPCKASGYTFTDYNMGWVKQSHGKSLEWIGAIIPNNGGTIYNQKFKGKATLTVDESSSTAYMELRSLTSEDTAVYYCAREAYRDYDVKTWFAYWGQGTLVTVSAAKTTPPSVYPLAPGSAAQTNSMVTLGCLVKGYFPEPVTVTWNSGSLSSGVHTFPAVLQSDLYTLSSSVTVPSSTWPSETVTCNVAHPASSTKVDKKIVPRDCGCKPCICTVPEVSSVFIFPPKPKDVLTITLTPKVTCVVVDISKDDPEVQFSWFVDDVEVHTAQTQPREEQFNSTFRSVSELPIMHQDWLNGKEFKCRVNSAAFPAPIEKTISKTKGRPKAPQVYTIPPPKEQMAKDKVSLTCMITDFFPEDITVEWQWNGQPAENYKNTQPIMDTDGSYFVYSKLNVQKSNWEAGNTFTCSVLHEGLHNHHTEKSLSHSPGK
light: DLQMTQTTSSLSASLGDRVTISCSASQGIRNYLNWYQQKPDGTVKLLIYYTSTLHSGVPSRFSGSGSGTDYSLTISNLEPEDIATYFCQQYSKFPYTFGGGTKLEIKRADAAPTVSIFPPSSEQLTSGGASVVCFLNNFYPKDINVKWKIDGSERQNGVLNSWTDQDSKDSTYSMSSTLTLTKDEYERHNSYTCEATHKTSTSPIVKSFNRNEC
With B1, the “OD450 (ref. 630 nm) of cell supernatant diluted 1000-fold” value with 2019-nCoV N蛋白抗原 [1] is above 1. In the experiment with 2019-nCoV N蛋白抗原 [2], the Kd worked out at 0.102 nM, the koff was found to be 0.000113 s⁻¹ and the association rate constant (kon) was found to be 1.11e+06 M⁻¹ s⁻¹.

B2: 抗新型冠状病毒的类IgM抗体8C21 (antibody)
heavy: EVLLQQSGPELVNPGASVKIPCKASGYTFTDYNMGWVKQSHGKSLEWIGAIIPNNGGTIYNQKFKGKATLTVDESSSTAYMELRSLTSEDTAVYYCAREAYRDYDVKTWFAYWGQGTLVTVSAAKTTPPSVYPLAPGSAAQTNSMVTLGCLVKGYFPEPVTVTWNSGSLSSGVHTFPAVLQSDLYTLSSSVTVPSSTWPSETVTCNVAHPASSTKVDKKIVPRDCPAVAEMNPNVNVFVPPRDGFSGPAPRKSKLICEATNFTPKPITVSWLKDGKLVESGFTTDPVTIENKGSTPQTYKVISTLTISEIDWLNLNVYTCRVDHRGLTFLKNVSSTCAASPSTDILTFTIPPSFADIFLSKSANLTCLVSNLATYETLNISWASQSGEPLETKIKIMESHPNGTFSAKGVASVCVEDWNNRKEFVCTVTHRDLPSPQKKFISKPNEVHKHPPAVYLLPPAREQLNLRESATVTCLVKGFSPADISVQWLQRGQLLPQEKYVTSAPMPEPGAPGFYFTHSILTVTEEEWNSGETYTCVVGHEALPHLVTERTVDKSTGKPTLYNVSLIMSDTGGTCY
light: DLQMTQTTSSLSASLGDRVTISCSASQGIRNYLNWYQQKPDGTVKLLIYYTSTLHSGVPSRFSGSGSGTDYSLTISNLEPEDIATYFCQQYSKFPYTFGGGTKLEIKRADAAPTVSIFPPSSEQLTSGGASVVCFLNNFYPKDINVKWKIDGSERQNGVLNSWTDQDSKDSTYSMSSTLTLTKDEYERHNSYTCEATHKTSTSPIVKSFNRNEC
notes: IgM-like antibody made by replacing part of the constant region of 9B54 with that of IgM
B2: in the experiment with 2019-nCoV N蛋白抗原 [2], the dissociation constant Kd was 0.031 nM, the koff is 6.56e-05 s⁻¹ and the association rate constant (kon) was 2.11e+06 M⁻¹ s⁻¹.
